The nanobody polyreactivity screen of Harvey et al. (2022)

assay: yeast display, Sf9 membrane polyspecificity reagent, FACS + sequencing; frameworks hold sequencing errors
Outline: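 Nanobodies from a synthetic yeast display library (Saccharomyces cerevisiae BJ5465), induced 36–48 hours with galactose, were stained 1 hour at 4 °C with 10% biotinylated, detergent-solubilized Sf9 membrane reagent, enriched on streptavidin microbeads, then FACS-sorted. Anti-HA (expression) and streptavidin (reagent binding) fluorescence set low and high (top ~1%) gates. Polyreactivity labels come from the gate of origin. Genes were colony-PCR amplified, MiSeq 2 × 250 sequenced and filtered by CDR length.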

Row | Sequence | polyreactivity (PSR sort gate)
1 | QLQLVESGGGLVQAGGSLRLSCAASGSTFVYNAMGWYRQAPGKERELVAAISTGGSTYYADSVKGRFTISRDNAKNTVYLQMNSLKPEDTAVYYCAAGYSWGYSSQKLRYGYWGQGTQVTVSS | high polyreactivity
2 | QLQLVESGGGLVQAGGSLRLSCAASGSTFVYYAMGWYRPAPGKERELVAGITSSGGSTYYADSVKGRFTISRDNAKNTVYLQMNSLKPEDTAVYYCAAYVWVQQGRYYYWGQGTQVTVSS | low polyreactivity
3 | QLQLVESGGGLVQAGGSLRLSCAASGSTFYAYAMGWYRQAPGKERELVARIRWRGGRTYYADSVKGRFTISRDNAKNTVYLRMNSLKPEDTAVYYCAADLSRAGGGYWGQGTQVTVSS | high polyreactivity
4 | QLQLVESGGGLVQAGGSLRLSCAASGSTFYLYDLGWYIQAPGKESELVAAITSSGGSTYYADSVKGRFTISLDNAKNTVYLQMTSLKPEDTAVYYCAARYRGWVYSYDYWGQGTQVTVSS | low polyreactivity
5 | QLQLVESGGGLVQAGGSLRLSCAPSGSIFYYSAMGWSRQAPGKESEFVAAITRNGGSTYYADSVKGRFTISRDNAKNTVYLQMNSLKPVATAVFYCNAVRVRVTSHRIRQLDYGYWGQGTQVTVSS | low polyreactivity
6 | QLQLVESGGGLVQAGGSLRLSCGASGFTFYVYAMGWSRQAPGKERELVAAISKSGGSTYYADSVKGRFTISRDHATNTVDLQMTSLKPEDTAVYSCAVFDNRSGYRGGHRYNSWGQATQVTVSS | high polyreactivity
7 | QLQLVESGGGLVQAGGSLRLSSAASGFIFDGNAMGGYRQAPGKERELVAAISWDGGTYYADSVKGRFTISRDNAKNTVYLQMNSLKPEDTAVDYCPAEQTQLYSFGWDEYWGQGTQVTVSS | low polyreactivity
8 | QLQLVESGGGLVQAGGSLRLSSAASGITFRGYTMGWYRPAPGKERELVARIRSSDGSTYYADSVKGRFTISRDNAKNTVYLQMNSLKPEDTAVYYCNDDRRGRALKYYSWGQGTQVTVSS | low polyreactivity
9 | QLQLVESGGGLVQAGGSLSLSCAASGSTFDYYDMGWYRQAPGKERELFSYISWSGGSTRYADSVKGRYTISRDNAKNTVYLQMNSLKPEESAVYYCNKSNPDYDRLAIHAFDYWGQGTQLTVSS | low polyreactivity
10 | QLQLVESGGGLVQAGVSLRLSCASSGRIFALYAMGLYSQAPGKERELVAAITWRGGRTRYADSVKGRFTFSRDNAKYTVYLQMNSLKPEDTAVYYCAKEYVKYQWDYGYFGQGTQVTVSS | high polyreactivity
11 | QLQLVESGGRLVQAGGSLRLSCAATGFTFGGYAMGWYRQAPGKESELVARIRRSGGSTYYADSVKGRFTISRDNAKNTVYLQMTSLKPEDTAVYYCAAGYSRGQYRYNYWGQGTQVTVSS | high polyreactivity
12 | QLQLVESGGVIVQAGGSLRLSCAASGITIYYNAMGGYRHAPGQVRELVAAITRSGGSPNYADSVKGRFTISRDNAKNNVYLQMKSLKPEDTAVYSCAKGHLYAGHRHYAYGYWGQGTQVTVSS | low polyreactivity
13 | QLQLVESGRGLVQAGGSLRLRCAASVSTFGANAMGWYRQAPGKESELVATISSGGRTYYADSVKGRFTISRDNAKNTVYLQMNSLKPEDTAVYYCNAGADYTYVYISVYVLYDEWGQGTQVTVSS | low polyreactivity
14 | QLQLVESGRGLVQAGGSLRLSCAASGFTFRTYAKGWYRQAPGKERELVAAITVSGGTYYADSVKGRFTISRDNAKNTVYLQMNSLKPEDTAVYYCTAKRFRTGFDYWGQGTQVTVSS | low polyreactivity
15 | QLQLVESGRGLVQAGGSLRLSCAASGRTFYFYGMGWYRQAPGKERELVASITRGTSTTYADSVKGRFTISRDNAKNTVYFQMNSLKPEDTAVYYCAARAWNYLTSYYIGGYEYWGQGTQVTVSS | low polyreactivity
16 | QLQLVESRGGLVQAGGSLRLSCAASGRIFFSNPMGWYIQAPGKDRELVASMTGGDDTNYADSVKGRFTISRDNAKNTVYLQMNSLKPEDTAVYYCAARAIPSYRWVYRFAPQYDYWGQGTQVTVSS | low polyreactivity
